# B1: Guanylate-binding protein 1 (Homo sapiens), P32455 (parent)
# chain: MASEIHMTGPMCLIENTNGRLMANPEALKILSAITQPMVVVAIVGLYRTGKSYLMNKLAGKKKGFSLGSTVQSHTKGIWMWCVPHPKKPGHILVLLDTEGLGDVEKGDNQNDSWIFALAVLLSSTFVYNSIGTINQQAMDQLYYVTELTHRIRSKSSPDENENEVEDSADFVSFFPDFVWTLRDFSLDLEADGQPLTPDEYLTYSLKLKKGTSQKDETFNLPRLCIRKFFPKKKCFVFDRPVHRRKLAQLEKLQDEELDPEFVQQVADFCSYIFSNSKTKTLSGGIQVNGPRLESLVLTYVNAISSGDLPCMENAVLALAQIENSAAVQKAIAHYEQQMGQKVQLPTETLQELLDLHRDSEREAIEVFIRSSFKDVDHLFQKELAAQLEKKRDDFCKQNQEASSDRCSALLQVIFSPLEEEVKAGIYSKPGGYRLFVQKLQDLKKKYYEEPRKGIQAEEILQTYLKSKESMTDAILQTDQTLTEKEKEIEVERVKAESAQASAKMLQEMQRKNEQMMEQKERSYQEHLKQLTEKMENDRVQLLKEQERTLALKLQEQEQLLKEGFQKESRIMKNEIQDLQTKMRRRKACTIS
# partner: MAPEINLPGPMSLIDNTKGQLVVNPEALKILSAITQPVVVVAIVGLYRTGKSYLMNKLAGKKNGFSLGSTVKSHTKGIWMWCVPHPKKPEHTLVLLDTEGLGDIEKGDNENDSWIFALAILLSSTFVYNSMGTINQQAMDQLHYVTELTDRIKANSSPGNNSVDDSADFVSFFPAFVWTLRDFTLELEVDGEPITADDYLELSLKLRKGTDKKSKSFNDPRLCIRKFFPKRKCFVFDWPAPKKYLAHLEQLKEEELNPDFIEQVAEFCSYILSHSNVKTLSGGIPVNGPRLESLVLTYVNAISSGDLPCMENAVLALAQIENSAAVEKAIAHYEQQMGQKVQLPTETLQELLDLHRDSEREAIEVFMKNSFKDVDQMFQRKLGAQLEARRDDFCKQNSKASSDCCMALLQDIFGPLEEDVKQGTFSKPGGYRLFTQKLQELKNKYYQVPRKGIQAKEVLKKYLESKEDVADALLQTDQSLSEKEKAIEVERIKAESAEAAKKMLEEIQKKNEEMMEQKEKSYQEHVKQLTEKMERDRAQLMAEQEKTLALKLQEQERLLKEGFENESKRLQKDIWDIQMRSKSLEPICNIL
# B2: Guanylate-binding protein 1 (Homo sapiens), P32455 (parent)
# chain: B1 chain
# partner: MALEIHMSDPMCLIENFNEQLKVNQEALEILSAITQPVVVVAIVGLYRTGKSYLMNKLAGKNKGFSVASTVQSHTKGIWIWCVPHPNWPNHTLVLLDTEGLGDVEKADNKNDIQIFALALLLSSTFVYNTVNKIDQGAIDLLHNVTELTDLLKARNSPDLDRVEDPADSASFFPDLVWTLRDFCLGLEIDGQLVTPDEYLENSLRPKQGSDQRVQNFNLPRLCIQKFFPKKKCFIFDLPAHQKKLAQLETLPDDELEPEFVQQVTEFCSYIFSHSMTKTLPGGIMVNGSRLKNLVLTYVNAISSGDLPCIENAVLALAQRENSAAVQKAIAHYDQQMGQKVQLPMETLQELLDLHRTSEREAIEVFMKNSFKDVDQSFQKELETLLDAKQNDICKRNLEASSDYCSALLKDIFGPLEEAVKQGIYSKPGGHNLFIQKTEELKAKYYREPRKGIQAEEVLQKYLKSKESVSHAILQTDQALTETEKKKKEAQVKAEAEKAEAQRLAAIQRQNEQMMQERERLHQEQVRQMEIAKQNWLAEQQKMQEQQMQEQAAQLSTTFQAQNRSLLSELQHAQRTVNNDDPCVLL
# Variants of: B1
# Details: with gbp2_human GBP2, P32456
row,effect of a mutation on the interaction,Variant
1,disrupting interaction strength,K51A

# Variants of: B2
# Details: with gbp5_human GBP5, Q96PP8
row,effect of a mutation on the interaction,Variant
1,disrupting interaction strength,K51A
